Where “and” joins values, the source holds several entries; their conditions need not be identical. Equal entries are not always repeated. Bounds are passed on as bounds.

For this assay, the target named is HA-tagged NLRC4 (UniProt Q3UP24 1-1024). Put plainly: co-IP.
Chain of HA-tagged NLRC4 (Q3UP24 whole entry): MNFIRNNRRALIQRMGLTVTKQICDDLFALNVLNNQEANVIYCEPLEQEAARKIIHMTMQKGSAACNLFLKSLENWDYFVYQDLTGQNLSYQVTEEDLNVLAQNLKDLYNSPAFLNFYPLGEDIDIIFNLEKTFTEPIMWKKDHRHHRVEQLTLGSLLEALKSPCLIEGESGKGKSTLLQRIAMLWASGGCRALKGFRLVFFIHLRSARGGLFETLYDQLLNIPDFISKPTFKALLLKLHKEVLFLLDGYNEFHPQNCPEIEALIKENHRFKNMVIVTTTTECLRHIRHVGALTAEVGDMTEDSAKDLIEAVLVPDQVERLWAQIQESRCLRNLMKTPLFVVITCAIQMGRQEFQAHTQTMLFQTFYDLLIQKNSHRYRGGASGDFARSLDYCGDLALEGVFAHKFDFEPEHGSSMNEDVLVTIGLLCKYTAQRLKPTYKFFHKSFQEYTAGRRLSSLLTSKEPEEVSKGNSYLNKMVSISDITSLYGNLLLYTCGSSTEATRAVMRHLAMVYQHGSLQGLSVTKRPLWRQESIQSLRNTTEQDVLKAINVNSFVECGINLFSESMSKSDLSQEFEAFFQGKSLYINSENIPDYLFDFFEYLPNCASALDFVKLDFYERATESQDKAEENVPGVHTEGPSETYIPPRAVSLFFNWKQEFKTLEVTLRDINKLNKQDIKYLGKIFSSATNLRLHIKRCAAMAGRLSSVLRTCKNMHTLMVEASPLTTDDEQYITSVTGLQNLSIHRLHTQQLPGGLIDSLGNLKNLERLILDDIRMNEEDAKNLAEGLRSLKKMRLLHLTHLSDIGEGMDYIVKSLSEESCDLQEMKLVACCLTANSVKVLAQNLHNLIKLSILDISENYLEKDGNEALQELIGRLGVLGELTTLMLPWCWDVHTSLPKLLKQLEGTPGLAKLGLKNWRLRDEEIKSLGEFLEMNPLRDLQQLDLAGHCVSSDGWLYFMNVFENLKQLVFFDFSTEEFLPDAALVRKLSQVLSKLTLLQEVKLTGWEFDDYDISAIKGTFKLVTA

B1: HA-tagged PELO (natural protein)
chain: MKLVRKDIEKDNAGQVTLVPEEPEDMWHTFNLVQVGDSLRASTIRKVQTESSTGSVGSNRVRTTLTLCVEAIDFDSQACQLRVKGTNIQENEYVKMGAYHTIELEPNRQFTLAKKQWDSVVLERIEQACDPAWSADVAAVVMQEGLAHVCLVTPSMTLTRAKVEVNIPRKRKGNCSQHDRALERFYEQVVQAIQRHINFEVVKCVLVASPGFVREQFCDYMFQQAVKTDNKVLLENRSKFLQVHASSGHKYSLKEALCDPTVASRLSDTKAAGEVKALDDFYKMLQHEPDRAFYGLKQVERANEALAIDTLLISDELFRHQDVATRSRYVRLVDSVKENAGTVRIFSSLHVSGEQLGQLTGVAAILRFPVPELSDQEDDSSSEED
By stoichiometry N is commonly meant the number of molecules, sites or subunits per partner or assembly. For B1, the “stoichiometry N” value was < 0.05 PELO per NLRC4 and ~0.05 PELO per NLRC4.

These data come from doi:10.1101/2022.10.05.511050 (bioRxiv, 2022).
